Measured values: patent US11407819B2, “Compositions and use of a fibrinogen binding motif present in EFB and COA for therapeutics and vaccines against Staphylococcus aureus” (priority 2013, dated 2022)
“Also recorded” adds a separate entry of the source.

Assays:
[1] = test system: Coa-F, Coa-R0, Efb-N, Efb-O, Efb-A binding to Fg; test: Inhibition by FBE5 scFv-Fc of Coa and Efb fragment binding to immobilized human Fg; set-up: species or system Staphylococcus aureus; conditions: scFv-Fc 0.5, 5, 50 μg/ml; Coa-F, Coa-R0, Efb-N, Efb-O 10 nM; Efb-A 750 nM
Protocol: To assess the inhibitory activity of anti-Coa scFv-Fc antibodies, 0.5 μg/well of human Fg was immobilized at 4° C. overnight in 50 mM Carbonate Buffer, pH 9.6. Indicated amounts (50, 5, 0.5 μg/ml) of scFv-Fcs prepared in 2% BSA+1×TBS+0.05% TWEEN® 20 were pre-incubated for 1 hour with a constant concentration of Coa or Efb fragments also prepared in 2% BSA+1×TBS+0.05% TWEEN® 20 at room temperature, 250 rpm shaking. Specifically, Coa-F, Coa-R0, Efb-N and Efb-O were at a fixed concentration of 10 nM; whereas Efb-A was at 750 nM. Fg-binding activity of each protein alone was also checked (no mAb control—0 μg/ml). The Fg-coated plate was blocked with 2% BSA-TBST and washed with PBST. […] Residual bound Coa and Efb fragments were detected with HRP-conjugated (HorseRadish Peroxidase-conjugated) α-GST-tag antibody, except for Efb-N, where an HRP-conjugated α-HIS-tag was used (see FIG. 18). HRP-tagged antibodies were diluted in 2% BSA+1×TBS+0.05% TWEEN® 20 and used at 1:10000 dilution. […] HRP signal was developed using […]™ OPD tablets using manufacturer's guidelines. Binding of Coa and Efb fragments to Fg (no mAb control) was set to 100% and residual binding to Fg of Coa and Efb fragments in the presence of different concentrations of antibodies was calculated and represented.
To assess the inhibitory activity of anti-Coa scFv-Fc antibodies, 0.5 μg/well of human Fg was immobilized at 4° C. overnight in 50 mM Carbonate Buffer, pH 9.6. Indicated amounts (0, 0.5, 5, and 50 μg/ml) of scFv-Fcs were pre-incubated for 1 hour with a constant concentration of Coa or Efb fragments. Specifically, Coa-F, Coa-R0, Efb-N and Efb-O were at a fixed concentration of 10 nM; whereas Efb-A was at 750 nM. Fg-binding activity of each protein alone was also checked (no mAb control—0 μg/ml). The Fg-coated plate was blocked with 2% BSA-PBST and washed with PBST. The pre-incubated mixture of Coa/Efb and anti-Coa scFv-Fc was transferred on the Fg-coated plate. Residual bound Coa and Efb fragments were detected with HRP-conjugated (HorseRadish Peroxidase-conjugated) α-GST-tag antibody, except for Efb-N, where an HRP-conjugated α-HIS-tag was used. Binding of Coa and Efb fragments to Fg (no mAb control) was set to 100% and residual binding to Fg of Coa and Efb fragments in the presence of different concentrations of antibodies was calculated and represented.

[2] = target: Coa-C311-636, Coa-F311-505, Coa-R0474-505; conditions: all three Coa fragments (Coa-C311-636, Coa-F311-505, Coa-R0474-505)
Description: (§1) Apparent affinity values were generated through analysis of the half maximum binding in ELISA, using […] PRISM® Version 6.01.

[3] = test system: Coa-C311-636; test: Solid-phase binding ELISA of scFv-Fc antibodies to Coa-C311-636; set-up: species or system Staphylococcus aureus; conditions: 200 ng/well
Protocol: (§2) As well, binding was tested against Coa fragments, namely Coa-C311-636. Coa-F311-505. Coa-R0474-505 and Coa-R506-636. Recombinant proteins Efb-N30-105, Efb-A30-67, Efb-O68-98, Coa-C311-636, Coa-F311-505, Coa-R0474-505 and Coa-R506-636 were diluted in 50 mM sodium carbonate pH 9.6 and immobilized at the concentration of 200 ng/well for 1 hour at room temperature. Immobilized proteins were probed for recognition in a solid-phase binding assay with different quantities of LIG40 antibodies after blocking and washing. After washing, varying concentrations of LIG40 scFv-Fc antibodies were diluted in 2% BSA+1×PBS+0.05% TWEEN® 20 and incubated with the immobilized proteins for 1 hour at room temperature with shaking at 250 rpm. Bound scFv-Fcs were detected using polyclonal α-human IgG HRP-conjugated Ab diluted to 1:10000 in 2% BSA+1×PBS+0.05% TWEEN® 20. HRP-conjugated Ab was incubated for 1 hour at room temperature with shaking at 250 rpm.
as §1

[4] = target: T1, Coa-R506-636 (Staphylococcus aureus, UniProt P07767); format: binding; conditions: 200 ng/well
T1 construct: the Coa-R is corresponding to the tandem-repeat region covering residue 506-636; GST (N); made in house; host or cells: E. coli BL21
Protocol: as §2, §1

[5] = test system: Coa-F311-505 and Coa-R0474-505; test: Solid-phase binding ELISA of LIG40 antibodies to Coa-F311-505 and Coa-R0474-505; set-up: species or system Staphylococcus aureus; conditions: 200 ng/well
Protocol: As well, binding was tested against Coa fragments, namely Coa-C311-636. Coa-F311-505. Coa-R0474-505 and Coa-R506-636. […] Immobilized proteins were probed for recognition in a solid-phase binding assay with different quantities of LIG40 antibodies after blocking and washing. […] HRP signal was developed with […]™ OPD using manufacturers guidelines. These 2 antibodies bound only Coa fragments in a dose dependent manner. No binding to truncated recombinant Efb proteins was observed.
For both antibodies, values in the range of 10^−10-10^−11 M were obtained.

[6] = test system: CoaC and CoaR; test: Peptide (CoaRO, CoaRI) inhibition of LIG40 mAbs binding to immobilized CoaC and CoaR; set-up: species or system Staphylococcus aureus; conditions: mAbs 0.5 μg/ml; 200 ng/well
Protocol: To investigate if LIG40 mAbs could be inhibited by CoaRO and CoaRI peptides, CoaC and CoaR (200 ng/well) was immobilized at 4° C. overnight in 50 mM Carbonate Buffer, pH 9.6. A fixed concentration of mAbs (0.5 μg/ml) prepared in 2% BSA+1×TBS+0.05% TWEEN® 20 was added to the wells along with indicated amounts of CoaRO and CoaRI peptides prepared in 1X TBS. Incubation for 1 hour, room temperature, 250 rpm shaking followed. After washing, the levels of bound mAbs were determined using a polyclonal α-human IgG HRP-conjugated Ab diluted 1:10000 in 2% BSA+1×TBS+0.05% TWEEN® 20. […] The development was performed through […]™ OPD tablets following manufacturer's protocol. […] First, to achieve appreciable inhibition high concentration of peptides needed to be used (above 100 μM).
To investigate if LIG40 mAbs could be inhibited by CoaRO and CoaRI peptides, CoaC and CoaR (200 ng/well) was immobilized at 4° C. overnight in 50 mM Carbonate Buffer, pH 9.6. A fixed concentration of mAbs (0.5 μg/ml) was added to the wells along with, indicated amounts of CoaRO and CoaRI peptides. Incubation for 1 hour, room temperature, 250 rpm shaking followed. After washing, […] were incubated with polyclonal α-human IgG HRP-conjugated Ab. […] First, to achieve appreciable inhibition high concentration of peptides needed to be used (above 100 μM).

Molecule	inhibition of binding to Fg of all proteins tested [1]	apparent Kd of anti-CoaC mAbs to Coa fragments (EC50 in ELISA) [2]	binding to Coa-C311-636 [3]	binding to Coa-R506-636 [4]	binding to Coa-F311-505 and Coa-R0474-505 [5]	inhibition of LIG40 mAb binding to CoaC and CoaR by peptides [6]
FBE5-F11: VH SEQ ID NO: 81, VL SEQ ID NO: 111 (antibody, V domains shown) VH: QVQLQESGGGVVQPGRSLRLSCAASGFTFSSYGMHWVRQAPGKGLEWVAVISYDGSNKYYADSVKGRFTISRDNSKNTLYLQMNSLRAEDTAVYYCAKDLASSGFDYWGQGTLVTVSS VL: QSVLTQPPSVSAAPGQKVTISCSGSSSNIGNNYVSWYQQLPGTAPKLLIYDNNKRPSGIPDRFSGSKSGTSATLGITGLQTGDEADYYCGTWDSSLSAEVFGGGTKLTVL	dose dependent inhibition of all proteins tested; also recorded: marked inhibition against all fragments of Coa and Efb	highest affinity				
LIG40-D8: VH SEQ ID NO: 100, VL SEQ ID NO: 130; selected against Coa-R506-636 (antibody, V domains shown) VH: EVQLVESGGGVVQPGRSLRLSCAASGFTFSSYGMHWVRQAPGKGLEWVAVIWYDGSNKYYADSVKGRFTISRDNSKNTLYLQMNSLRAEDTAVYYCARDYHGDGFDYWGQGTLVTVSS VL: DIQMTQSPSSLSASVGDTVTITCRASQDINNYLAWFQQKPGKAPKSLISAASSLQNGVPLRFSGSASGADFTLTISGLQPEDSGTYYCQQYDVFPITFGPGTKVDIK			bound	bound	detected to a minor extent; also recorded: minor binding	only impaired in its binding activity by CoaRO peptide
